Measurements published in publication PMC3293552.

Biological target: Fluorescein-labeled ATS-FL Q150C variant (Plasmodium falciparum)
Experiment: fluorescence polarisation

Work on “PFI1780w fragment spanning residues 80-280 (PHISTc-type domain) (domain or fragment)” yielded a Kd of 150 µM.
